These results are taken from the DeepSol protein solubility set.

The data set in a line: soluble on expression in E. coli; label from the status in PepcDB or PDB records.
Take “MAGWVAKRFWKEASVAEEPGGFAVLLDGRGVRTPAKRPLILPTCALAEAVASEWQAQEGEVRPETMPVTRSANSALDKVAPQFDEVTEMLAAYGGTDLLCYRATAPEALVARQARAWDPVLAWAAERFEAPLETTAGVMHQAQPEASLTRLAEHVRSFSPFQVAGFHDLVAISGSLILGLGVTEGHLLPEEAWELSRVDESWQIEQWGADEEAAEIEAFRRTAFLQAARFYALCGKLAAALEHHHHHH”: the “soluble on expression in E. coli” value is “not soluble”. Next, “MAHCLHPEKFFPVVKSVALPPGSLNGKVALVTGGGTGLGKAIATTFAHLGASVAIAARRLDVLEKTADEIRSSTGGVCEPFQMDVKDPAKVAKAFDAVEKKLGHTPDILINNAAGNFIMATERLSPNAYGTIIDIVLKGTLHVTTELGRRCIQQKRGASVLSITTLYAQSGAPFVVPSAVSKAGVENMTKSLASEWAKHGLRFNAIAPGPIPTEGAFGRLFAGELKDSGDAMKASVPVGRLGHPEEIANLAAFMSSDFMSWMNGAIIDFDGGQQHIHHGSHMGQFLHEWDNEKWEETENLIRGRTGKEKKSKL”: “soluble”. Next, “MAHDLQKMMDGELVRLQLEIKKEQERRLAEKMIPVFGVWQSPINQYEFADPEQAISCAAGLLDKVLREVKDDLSKEGGLQGWNGNLLRIYVQHVNESDFAVLQPYLKDK”: “not soluble”. The entry for “MAHFGKLALSVTAAAVLALSAQARDQIKMAGSSTVYPFSSYVAEEFGATTGNKTPVVESLGTGGGFKVFCAGDGLDTTDIANASRPIKKSEFDNCVANGVTDITGVMIGYDGISIAQSKANAAINFKIEHLFLALAEEVPVDGKLVKNPYKTWNQVDASLPNRPIVVYGPPTTS” is “not soluble”; for “MAHHHHHHGTEKTPDDVFKLAKDEKVEYVDVRFCDLPGIMQHFTIPASAFDKSVFDDGLAFDGSSIRGFQSIHESDMLLLPDPETARIDPFRAAKTLNINFFVHDPFTLEPYSRDPRNIARKAENYLISTGIADTAYFGAEAEFYIFDSVSFDSRANGSFYEVDAISGWWNTGAATEADGSPNRGYKVRHKGGYFPVAPNDQYVDLRDKMLTNLINSGFILEKGHHEVGSGGQAEINYQFNSLLHAADDMQLYKYIIKNTAWQNGKTVTFMPKPLFGDNGSGMHCHQSLWKDGAPLMYDETGYAGLSDTARHYIGGLLHHAPSLLAFTNPTVNSYKRLVPGYEAPINLVYSQRNRSACVRIPITGSNPKAKRLEFRSPDSSGNPYLAFSAMLMAGLDGIKNKIEPQAPVDKDLYELPPEEAASIPQTPTQLSDVIDRLEADHEYLTEGGVFTNDLIETWISFKRENEIEPVNIRPHPYEFALYYDV” it is “soluble”. As to “MAHHHHHHMAACRSTPLTSSPVACEQAHRQPTIVDRDYEASKYWKSHRCRRIPKATGLTAVLITNPGLSVFTHQPHSRTNTVQGRKSCQGQQTTGRQLQISGNRAVADSVPRSQKNSVTAAWSV”, the “soluble on expression in E. coli” value is “not soluble”. Next, “MAHHHHHHMAAVTQQGNDTRKLRCNVYVASLPLDFDDDQLFDLFSPYGRISSARIMRSKGARQSRGYGFVLFRHASSAEKAIDSLVGYVIGGSRIQVRLAHPEASVAYSGQRGSRSGNSTPGALPEKTLPAASGVITPPPPSSAIISHPNDSGMMVQTYPITTMYPTMYPSVVPQIIAQPQAPVPAAMQQVVFLPQYAQQSNQSTPPTFYMMVPDAMQAVPPTLS”: “soluble”; “MAHHHHHHMAAYGIVESPDNVDYKTKCCCQTTDGVYFQVPKEYFRLHANLSRRKLLIAEPFGVPLDSSAFESLVVLLEKAAIVSPAAATAGTEVVSKGDGAKQQWIKDLNKRQQKFVGACLGVTTWDGADVYFYEEKLPKESDVVWVKVIQVNDTSAVVQLLEYGNHEGIIPYTEITRIRIRAIGKVIKVGKNEAAQVIRIDKDKGYIDLSKKQVTLKEAKDCEARFFKGNEVRSVVCHVADECGVPPAEAMKRIAYPLYRRQPGKHAWEWLYELNQTKDVKGILGDLEISEAEIKVLMTTLEHTMRTEIATIHADIEMTCFQCDGVNALREVLLVGRDFKAGKDPLIPISVTIVGPPKYRLRAKTELKEEGIVRMKEAIEMMKIEMAKRGGILKVVAGPFVLGEEEHTKEERNEDAEDDEGEDTD”: “not soluble”. “MAHHHHHHMACDFELPLFAAPCSEVLSTQMSVVDGKMAEKSDKAKRTARASACMIRKGFFSHFPQAILTSPESGIKTAPHPWSNASLMMAADAFSVGLMLRLRLFSIICRNPSPKPTAAGGRFAGYVFCTIPRLSADNCRRTALLKKSWSYKRMPKMAAKYKKRDAVTSISAMVKELSAGMARTDRRNFSLRDTVW”: the “soluble on expression in E. coli” value is listed as “not soluble”. The entry for “MAHHHHHHMAKHSTFKNLVKLHGDMKKEELLVLFFHSCILDNNFIYKLNDEQKYEKSESHEKIKISNGYIKHMTDVGSGKFFLSRILIDPEWRSNSSSYNFLYQSVDTNDTYNLNLVKIENSLVVQIINTAQPSVVHSVTIDVGEYVNECTAEEGKTDNIEDRVMMEKLEGVFQTHILSHMKKGSSNNILGDNSSSKGKGPKGLIIESNANEHFRNVFQTNPDPYLLPNFNANHFDDKNPNIGRSLIPDLRNNVPILKPDGLLVGPDNKFFNPKNLRYDPIGPFGNEPNADNKPFEFQDNFPF” is “not soluble”; for “MAHHHHHHMALLVYLNNKQTHSFIAVRKSSSLLFSPGNFKAIYQRIYEHLNDQYEERGQLEAGEEILTVKPNVFAQNGVIDFDGVRKMWTSHIVPQLRRCVTGDHLANTTDNSVVSIEESAVFCDIGSGVGNVCLQLLAETNCRKVVGVEVIPSRHRAATTAFAKALSYFPENFSGKQAIFIQDDFVNCARRMVEENVNVIFTHSWMFDDELMKRLTELVVSLPALLCVVTSRPLHENLLVGSQMKLVSYVHLTADWNDEAPFFIYRKIT” it is “not soluble”. “MAHHHHHHMAQSLVWRYLGPEDTHRCLDAPDVPSVRNLLVEIDDGMDGKLINCRNYNKGQLMIVLDMLAHLIVFTKTCSMSLEKVSTIVGIMLELHRESMSNQYTRSQSYHRLRELMLLHSVPRPPFSCGIFSVADVQHIDEYLLLSYFRHYKMYVYAFVPQRLANIHSVSVGHNHCVPPLGLPALTTATPRAEWIAKVEDTHRQMEERQMEVEDVRSAEYEEEWLKHRYLNGTHYSEGLREQLQSIKRDVSDKALNQLDLIEARLVEIEKKVEIVQQRQDGKGGKRKK”: the “soluble on expression in E. coli” value is listed as “not soluble”. For the sequence “MAHHHHHHMASGCLKYASVDDFIAKCILSRDPYQPEFTQAVREVMTSLWPFLQKNPKYTQDGLLERIVEPERVIQFRVPWVDDKGVTHVNRAFRVQFNSAIGPYKGGMRFHPSVNLSILKFLGFEQTFKNSLTTLPMGGGKGGADFDPKGKSDCEVMRFCQSLVAELYRHIGADTDVPAGDIGVGSREVGYMNGMYWKLRNTNECTFTGKGLAFQGSAIRPEATGYGLVYFVQSMLTHVNDSLEGKTVLVSGSGNVAQYAIEKCMELGAKVITASDSKGYIQDPSGFDKVKLAKLMKLKNECRGTLEEYARETGVTYVPGKRPWCVKADIALPCATQNEIEGADAKTMLTNGVKLVAEGANMPTTEEATEIFQKAGVLFAPGKASNAGGVAISGLEMSQNAARLVWDAEEVDSRLRSIMSSIHDSCVQYGEKDGKVSYVDGANIAGFACFLRRRTFATRVSPVHQVLCT”, the “soluble on expression in E. coli” value is “soluble”. Next, “MAHHHHHHMAVAYVFDGAVLKQMSLEAGHPKFTVLDTPLCSDSAVTCFGKDEFYFINGSVPNVLRHFGGRSGCTEHFLPGPAHCLLVHRQKVYCCGVDCLYVFDPLGEEVETIELGQQIKELTAADHGFVFVNDRHELYAFHFTRGVKIVGTKGPVSKLLGHHNRYAVVLLDNGDVISVNEEAEVRENLFPLKIKERFVALDTGMTLALREDELALHMNGTWLCLDGFKGRELQFLGVPLTPAEDACTICFCDFEDGDGVRLDCGHPFHRDCLAEFSTHAKSFVEKGEHIVFTYAVCPSGCGTHIRHAAAPLSAYMNDLYRAVTKDAEGRLREMENKTLEDLYYYVCCRCEKPYYGGNRWCSRTISGEPCKKPSELICSDCNDDFLCPSHNHDFVLYKCRYCCNPATHLSFGNRYMCDACNKKWEGTEPEPMECPGAEKCPLGGAHPTGGSQPLGCMLCTLFDKCDAKHFFPPQ”: “not soluble”; “MAHHHHHHMAYALVEADSISFSLKPADLCADSPLEYGSPREKETNGLSPCGDKGPLTPFGVRPHLFSKGWWRLVVLSSVPLDSYRAIPKDTWSFTEKGQLKQGSNALLFSYACTVSDRTDITLLLDVHSQRPIPFRIKIFRAGVEGPPVFVSEECVNHLFVPHVAVDVPEKVKNVAYIIEAWLDKEKVEEWERMRRLSQELKFLLAAEAARVKAEMKQQKELQEYHEDPRAFKERLLNQEMGPVENLVPTPLREQMSVSSKKGRPSVDKRRTLSNAAPSRQTIVRTSVTPSTPASAVAVHIDSIDPELVVTYDLRLYFSAKTDVKCVATGKDPLTTMRGLWVHQLILFLGKPLRSPVVAREGSVGSRRILLHLLKNYTRRII”: “not soluble”.

With “MAHHHHHHMAYPYNAYLGYTQPPTQYGQPPVVAGAHGHLPVTTPLPYNAQSAYGGAQPP”, the “soluble on expression in E. coli” value is reported as “not soluble”. Next, “MAHHHHHHMAYPYNAYLGYTQPPTQYGQPPVVAGAHGHLPVTTPLPYNAQSAYGGAQPPMPTSTGVYAPSARHMNDNQELMEWFRAVDTDGSGAISVPELNAALSSAGVPFSLATTEKLLHMYDKNHSGEITFDEFKDLHHFILSMREGFRKRDSSGDGRLDSNEVRAALLSSGYQVSEQTFQALMRKFDRQRRGSLGFDDYVELSIFVCRVRNVFAFYDRERTGQVTFTFDTFIGGSVSIL”: “soluble”; “MAHHHHHHMCLGRSSGSALDTPLGAWWGGKRVAEIPPCPAESVTFVQLIARHFSPFVLRQHLPGAQDGLVTSSVQTREVAHKPVGCDVAVLVVVKRGAQVLRLPFARPHAKIPQKINKKLVRHALLTTRPLLLLQLKELSQCLNDRLWAAPTTQGALHTQKHAILARVVRVTPQHRRHRTTKAKQQQQQKQRNCSLVKSAHKT”: “not soluble”. For the sequence “MAHHHHHHMDAPVNVFLRFGLSHSERLNHLLERVGTAQAAFRIVGPRQQEGVARTPAHPHDGADCARVGAPFSVHSGSCSHTCKGEAHDELCASLARLPPLPSPPPASHTCYCLHRTRFRCFCFPSPSLLQRRTLGGGGIGVGRAADVQHPFNGQEPALSVYFTHCHAGLRRTSPRCLISYCGRVSSLRFAFPLGDQVTFFVPLFHTDTSSMGTTHEYEPPVAMKPLEELTDADRREMRDLGIGEGMFNCILTSCMKFALSGGWSVRKHDAKYDIVWETKPSQNSNKQAMRFTAKVPNCNTGSLEAILVADEYLEDDPNVSYMYKYDRLLQQNHAEKRIAGNVTVQSTHYGAPVMFVAPRHIISYVTLGALLTPAQQKELWIRPTGLRDQLADAERKDDLMAFTQCCIDYTGDAVELRKGSERGHVYSYSLLGQEEPDGSMTVTMTLDIDPAGKLPAKVVDMSSDEQHKKMQRIVELLKAKGPQPHLCSVYQNTRDFPFRNPSKGEGEGKRS”, the “soluble on expression in E. coli” value is “soluble”.

Consider “MAHHHHHHMDEEVVLRGVEDITCRCVYSHVYVYARVCVFGYVLPSSSVVYRGTLAMECTFGVHEKKNKMKKNKCYLRGQTIGTRDTVCGVMCLNIPPRHCYCSFFLFPFYNPFLL”, for which the “soluble on expression in E. coli” value is listed as “not soluble”.

Regarding “MAHHHHHHMDEGLPIDASEAQLEAIRREVAQYPLLSLSLPLNKESMIVKEMEHDDAYLAQTLSLFGASPVSTKQYDFGSIRYSRRDGNCFYRCAGFRLCELIVEHPERAAEYVALLKSREESLSRLFGLFVFDFTDALAEILKGVADKTITSVAQVYNRFISDDAAYVLAALRYLISAYLQEHEEEYEPFVSGLGYGAVRDYCNAEVELVDHESDNVQLAAFAKAFNVCIKVYALDRNAGNNITEYSFNGEDNDAGDRLVVGLLYMPGHYNLLGRGPG”, the “soluble on expression in E. coli” value is recorded as “not soluble”.
